Experimental data taken from patent publication US20040018977A1 (published 2004).

B1: CG51896-10, intracellular domain, aa 690-1047, Binding Domain (BD) fusion (other)
chain: VCDHRRKDVAVVQRKEKELTHSRRGSMSSVTKLSGLFGDTQSKDPKPEAILTPLMHNGKLATPGNTAKMLIKADQHHLDLTALPTPESTPTLQQKRKPSRGSREWERNQNLINACTKDMPPMGSPVIPTDLPLRASPSHIPSVVVLPITQQGYQHEYVDQPKMSEVAQMALEDQAATLEYKTIKEHLSSKSPNHGVNLVENLDSLPPKVPQREASLGPPGASLSQTGLSKRLEMHHSSSYGVDYKRSYPTNSLTRSHQATTLKRNNTNSSNSSHLSRNQSFGRGDNPPPAPQRVDSIQVHSSQPSGQAVTVSRQPSLNAYNSLTRSGLKRTPSLKPDVPPKPSFAPLSTSMKPNDACT
notes: also called NOV2r
B2: CG51896-10, intracellular domain, aa 950-1047, Binding Domain (BD) fusion (other, not shown: large carriers)
chain: TLKRNNTNSSNSSHLSRNQSFGRGDNPPPAPQRVDSIQVHSSQPSGQAVTVSRQPSLNAYNSLTRSGLKRTPSLKPDVPPKPSFAPLSTSMKPNDACT
notes: also called NOV2r
B3: CG51896-10, intracellular domain, aa 805-1047, Binding Domain (BD) fusion (other, not shown: large carriers)
chain: TKDMPPMGSPVIPTDLPLRASPSHIPSVVVLPITQQGYQHEYVDQPKMSEVAQMALEDQAATLEYKTIKEHLSSKSPNHGVNLVENLDSLPPKVPQREASLGPPGASLSQTGLSKRLEMHHSSSYGVDYKRSYPTNSLTRSHQATTLKRNNTNSSNSSHLSRNQSFGRGDNPPPAPQRVDSIQVHSSQPSGQAVTVSRQPSLNAYNSLTRSGLKRTPSLKPDVPPKPSFAPLSTSMKPNDACT
notes: also called NOV2r

Biological target: T1, NCK2, aa 1-380, Activation Domain (AD) fusion (human, UniProt O43639 1-380)
T1 construct: range 1-380; Also used for the sentences that name NCK2 as a partner of the cytoplasmic domain
Assay: yeast two-hybrid matrix mating assay, beta-gal read-out
Protocol: Matrix Mating Haploid cells for the PathCalling matrix mating assay are grown up individually in 384 well plates using selective liquid media. After 1-2 days, the mating is done entirely in a nutrient rich media. The resulting diploid cells are then selected using a selective liquid media. The optical density (O.D.) of the diploid cells is measured using a spectrophotometer to measure and the cells are then transferred to a fresh plate for a Beta-gal assay. This assay is performed to determine if there is an interaction between the two proteins being tested. The Beta-gal assay is performed as follows:
2. The β-gal buffer is made using the following (per 384 well plate): 7.1 ml Sigma water, 7.5 ml 4X Z-buffer, 0.3 ml 20% IGEPAL, 30 mg CPRG, 75 μl Lyticase (10,000 U/ml) and 3.30 μl of β-gal buffer is added to each well of the plate made in step 1 using a multi-drop 384.

T1 sequence (O43639 whole entry, the tested form may be a part): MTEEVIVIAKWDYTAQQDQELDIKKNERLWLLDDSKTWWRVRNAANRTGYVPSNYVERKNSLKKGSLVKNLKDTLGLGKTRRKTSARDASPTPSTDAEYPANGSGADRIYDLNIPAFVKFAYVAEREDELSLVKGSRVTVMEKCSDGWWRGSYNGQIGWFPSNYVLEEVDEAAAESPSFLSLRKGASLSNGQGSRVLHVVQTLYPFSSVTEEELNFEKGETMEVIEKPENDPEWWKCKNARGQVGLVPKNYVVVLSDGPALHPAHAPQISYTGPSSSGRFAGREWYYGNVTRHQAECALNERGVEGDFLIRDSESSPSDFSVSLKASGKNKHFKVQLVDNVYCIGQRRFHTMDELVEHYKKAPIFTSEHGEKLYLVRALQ

binding result	Binder
binds	B1
binds	B2
binds	B3
